The target of the test is T1, FZD4 recombinant extracellular domain, Fc fusion (FZD-Fc) (UniProt Q9ULV1 37-180).
T1 construct: extracellular domain; also called FZD4 ECD; not shown: Fc part of the FZD-Fc protein
T1 sequence (looked up): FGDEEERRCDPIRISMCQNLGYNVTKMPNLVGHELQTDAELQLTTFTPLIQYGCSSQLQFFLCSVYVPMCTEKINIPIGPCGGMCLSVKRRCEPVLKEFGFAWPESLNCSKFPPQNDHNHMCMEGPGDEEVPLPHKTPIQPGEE
The experiment in a line: BLI (Octet), FZD-Fc captured on AHQ sensors, agonist in solution; apparent affinity. For orientation: BLI is a label-free optical method that tracks binding on a fibre tip over time.

Where a chain is given by its changes, count along the chain named.

B1: FZD4 Agonist ANT21 (bispecific antibody)
heavy 1: EVQLVESGGGLVQPGGSLRLSCAASGFNFSSSSIHWVRQAPGKGLEWVASISSSYGYTYYADSVKGRFTISADTSKNTAYLQMNSLRAEDTAVYYCARGGSGVSHYGSVYYSWWALDYWGQGTLVTVSSGGGGSDIQMTQSPSSLSASVGDRVTITCRASQSVSSAVAWYQQKPGKAPKLLIYSASSLYSGVPSRFSGSRSGTDFTLTISSLQPEDFATYYCQQYWAYYSPITFGQGTKVEIKGGGGSGGGGSEPKTSDKTHTCPPCPAPELLGGPSVFLFPPKPKDTLMISRTPEVTCVVVAVSHEDPEVKFNWYVDGVEVHNAKTKPREEQYGSTYRVVSVLTVLHQDWLNGKEYKCKVSNKALPAPIEKTISKAKGQPREPMVFDLPPSREEMTKNQVSLWCMVKGFYPSDIAVEWESNGQPENNYKTTPPVLDSDGSFFLYSKLTVDKSRWQQGNVFSCSVMHEALHNHYTQKSLSLSPGKGGGSGGGSGGGSGGGSGSTGEVQLVESGGGLVQPGGSLRLSCAASGFTLSSYSMHWVRQAPGKGLEWVAYISSYYGYTYYADSVKGRFTISADTSKNTAYLQMNSLRAEDTAVYYCARPAPGHWGFDYWGQGTLVTVSSASTKGPSVFPLAPSSKSTSGGTAALGCLVKDYFPEPVTVSWNSGALTSGVHTFPAVLQSSGLYSLSSVVTVPSSSLGTQTYICNVNHKPSNTKVDKKVEPKSCDKTHT
heavy 2: EVQLVESGGGLVQPGGSLRLSCAASGFNFSSSSIHWVRQAPGKGLEWVASISSSYGYTYYADSVKGRFTISADTSKNTAYLQMNSLRAEDTAVYYCARSWAMDYWGQGTLVTVSSGGGGSDIQMTQSPSSLSASVGDRVTITCRASQSVSSAVAWYQQKPGKAPKLLIYSASSLYSGVPSRFSGSRSGTDFTLTISSLQPEDFATYYCQQSSYSLITFGQGTKVEIKGGGGSGGGGSEPKSSDKTHTCPPCPAPELLGGPSVFLFPPKPKDTLMISRTPEVTCVVVAVSHEDPEVKFNWYVDGVEVHNAKTKPREEQYGSTYRVVSVLTVLHQDWLNGKEYKCKVSNKALPAPIEKTISKAKGQPREPQVYTLPPIRELMTSNQVSLSCAVKGFYPSDIAVEWESNGQPENNYKTTPPVLDSDGSFFLVSKLTVDKSRWQQGNVFSCSVMHEALHNHYTQKSLSLSPGKGGGSGGGSGGGSGGGSGSTGEVQLVESGGGLVQPGGSLRLSCAASGFTLSSYSMHWVRQAPGKGLEWVAYISSYYGYTYYADSVKGRFTISADTSKNTAYLQMNSLRAEDTAVYYCARPAPGHWGFDYWGQGTLVTVSSASTKGPSVFPLAPSSKSTSGGTAALGCLVKDYFPEPVTVSWNSGALTSGVHTFPAVLQSSGLYSLSSVVTVPSSSLGTQTYICNVNHKPSNTKVDKKVEPKSCDKTHT
light: DIQMTQSPSSLSASVGDRVTITCRASQSVSSAVAWYQQKPGKAPKLLIYSASSLYSGVPSRFSGSRSGTDFTLTISSLQPEDFATYYCQQWYYAPITFGQGTKVEIKRTVAAPSVFIFPPSDEQLKSGTASVVCLLNNFYPREAKVQWKVDNALQSGNSQESVTEQDSKDSTYSLSSTLTLSKADYEKHKVYACEVTHQGLSSPVTKSFNRGEC
notes: Diabody-Fc-Fab format
For the molecule B1, the Kd came to 2.2 nM.

B2: FZD4 Agonist ANT39 (bispecific antibody, human IgG1, kappa, N297G)
heavy 1: EVQLVESGGGLVQPGGSLRLSCAASGFDFTAYAMHWVRQAPGKGLEWVASIYPSGGYTAYADSVKGRFTISADTSKNTAYLQMNSLRAEDTAVYYCARRSYYFALDYWGQGTLVTVSSGGGGSDIQMTQSPSSLSASVGDRVTITCRASQSVSSAVAWYQQKPGKAPKLLIYSASSLYSGVPSRFSGSRSGTDFTLTISSLQPEDFATYYCQQYWAYYSPITFGQGTKVEIKGGGGSGGGGSEPKTSDKTHTCPPCPAPELLGGPSVFLFPPKPKDTLMISRTPEVTCVVVAVSHEDPEVKFNWYVDGVEVHNAKTKPREEQYGSTYRVVSVLTVLHQDWLNGKEYKCKVSNKALPAPIEKTISKAKGQPREPMVFDLPPSREEMTKNQVSLWCMVKGFYPSDIAVEWESNGQPENNYKTTPPVLDSDGSFFLYSKLTVDKSRWQQGNVFSCSVMHEALHNHYTQKSLSLSPGKGGGSGGGSGGGSGGGSGSTGEVQLVESGGGLVQPGGSLRLSCAASGFTLSSYSMHWVRQAPGKGLEWVAYISSYDSITDYADSVKGRFTISADTSKNTAYLQMNSLRAEDTAVYYCARPAVGHMAFDYWGQGTLVTVSSASTKGPSVFPLAPSSKSTSGGTAALGCLVKDYFPEPVTVSWNSGALTSGVHTFPAVLQSSGLYSLSSVVTVPSSSLGTQTYICNVNHKPSNTKVDKKVEPKSCDKTHT
heavy 2: EVQLVESGGGLVQPGGSLRLSCAASGFDFSSSSIHWVRQAPGKGLEWVASISSSYGYTYYADSVKGRFTISADTSKNTAYLQMNSLRAEDTAVYYCARSWAMDYWGQGTLVTVSSGGGGSDIQMTQSPSSLSASVGDRVTITCRASQSVSSAVAWYQQKPGKAPKLLIYSASDLYSGVPSRFSGSRSGTDFTLTISSLQPEDFATYYCQQYAGAGLITFGQGTKVEIKGGGGSGGGGSEPKSSDKTHTCPPCPAPELLGGPSVFLFPPKPKDTLMISRTPEVTCVVVAVSHEDPEVKFNWYVDGVEVHNAKTKPREEQYGSTYRVVSVLTVLHQDWLNGKEYKCKVSNKALPAPIEKTISKAKGQPREPQVYTLPPIRELMTSNQVSLSCAVKGFYPSDIAVEWESNGQPENNYKTTPPVLDSDGSFFLVSKLTVDKSRWQQGNVFSCSVMHEALHNHYTQKSLSLSPGKGGGSGGGSGGGSGGGSGSTGEVQLVESGGGLVQPGGSLRLSCAASGFTLSSYSMHWVRQAPGKGLEWVAYISSYDSITDYADSVKGRFTISADTSKNTAYLQMNSLRAEDTAVYYCARPAVGHMAFDYWGQGTLVTVSSASTKGPSVFPLAPSSKSTSGGTAALGCLVKDYFPEPVTVSWNSGALTSGVHTFPAVLQSSGLYSLSSVVTVPSSSLGTQTYICNVNHKPSNTKVDKKVEPKSCDKTHT
light: B1 light with Y93N
notes: Diabody-Fc-Fab format, DANG Fc
On to B2, for which the Kd worked out at 0.3 nM.

These data come from patent publication US20250270332A1 (ANTLERA THERAPEUTICS, published 2025).
